# According to patent US20180105596A1 (ELSALYS BIOTECH, published 2018):
# T1: recombinant His-Strep tagged human Tyro3 extracellular domain (human, UniProt Q06418 41-429)
# T1 construct: also called hTyro3 ECD; full Tyro3 ECD
# T1 sequence: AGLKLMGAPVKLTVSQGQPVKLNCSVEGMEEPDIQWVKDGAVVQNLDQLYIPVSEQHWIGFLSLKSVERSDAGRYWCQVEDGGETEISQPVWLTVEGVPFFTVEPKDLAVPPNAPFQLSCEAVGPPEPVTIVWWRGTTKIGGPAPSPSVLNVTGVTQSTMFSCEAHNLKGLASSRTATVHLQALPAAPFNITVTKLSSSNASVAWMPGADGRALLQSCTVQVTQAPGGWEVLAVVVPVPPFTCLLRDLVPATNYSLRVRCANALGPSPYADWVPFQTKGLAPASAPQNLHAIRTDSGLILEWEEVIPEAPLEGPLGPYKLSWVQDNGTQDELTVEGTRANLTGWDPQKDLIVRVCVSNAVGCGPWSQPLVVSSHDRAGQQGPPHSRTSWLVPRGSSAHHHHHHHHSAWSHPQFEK
# T2: cynomolgus Tyro3 ECD, His-Strep tagged
# T2 construct: also called cyno TYRO3 ECD 8hisstrep
# T2 extracellular domain: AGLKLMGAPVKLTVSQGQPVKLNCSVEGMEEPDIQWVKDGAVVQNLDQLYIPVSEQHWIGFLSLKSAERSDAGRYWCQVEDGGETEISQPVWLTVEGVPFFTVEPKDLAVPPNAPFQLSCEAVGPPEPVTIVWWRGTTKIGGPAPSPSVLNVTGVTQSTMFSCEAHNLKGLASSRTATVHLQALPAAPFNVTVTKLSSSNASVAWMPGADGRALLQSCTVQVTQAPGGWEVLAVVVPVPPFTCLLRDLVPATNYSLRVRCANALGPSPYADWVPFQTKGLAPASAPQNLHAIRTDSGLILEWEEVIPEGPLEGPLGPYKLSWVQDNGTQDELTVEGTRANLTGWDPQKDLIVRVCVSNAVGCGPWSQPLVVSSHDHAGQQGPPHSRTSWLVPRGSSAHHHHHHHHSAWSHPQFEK
# T3: recombinant human Tyro3 on transfected HEK293 cells (human, UniProt Q06418)
# T3 construct: membrane receptor on HEK293 cells; untransfected HEK293 cells (endogenous Tyro3) serve as comparison; also called Tyro3-transfected cells
# T3 sequence (receptor, looked up): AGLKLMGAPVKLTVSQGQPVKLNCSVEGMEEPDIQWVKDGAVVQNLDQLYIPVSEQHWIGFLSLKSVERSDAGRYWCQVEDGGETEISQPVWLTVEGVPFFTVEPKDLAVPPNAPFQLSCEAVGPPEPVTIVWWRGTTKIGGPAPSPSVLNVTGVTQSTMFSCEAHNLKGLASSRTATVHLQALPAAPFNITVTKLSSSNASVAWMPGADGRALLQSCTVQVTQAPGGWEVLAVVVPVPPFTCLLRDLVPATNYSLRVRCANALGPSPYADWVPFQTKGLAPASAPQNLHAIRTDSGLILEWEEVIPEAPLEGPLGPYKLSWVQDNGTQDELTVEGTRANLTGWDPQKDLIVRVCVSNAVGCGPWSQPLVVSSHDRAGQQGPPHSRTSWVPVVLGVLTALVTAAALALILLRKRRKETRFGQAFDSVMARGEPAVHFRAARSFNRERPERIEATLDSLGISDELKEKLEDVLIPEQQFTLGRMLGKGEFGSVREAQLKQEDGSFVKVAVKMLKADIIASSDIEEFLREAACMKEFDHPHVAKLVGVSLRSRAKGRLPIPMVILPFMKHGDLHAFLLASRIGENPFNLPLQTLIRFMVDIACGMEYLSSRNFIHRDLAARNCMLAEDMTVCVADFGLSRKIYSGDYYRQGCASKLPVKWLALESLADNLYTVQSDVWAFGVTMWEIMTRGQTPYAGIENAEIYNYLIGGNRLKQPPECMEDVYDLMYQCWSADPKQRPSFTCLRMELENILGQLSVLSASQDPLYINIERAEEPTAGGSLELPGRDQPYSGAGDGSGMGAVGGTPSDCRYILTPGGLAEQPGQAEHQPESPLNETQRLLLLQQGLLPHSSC
# What was measured:
# [1] = target: T1, recombinant His-Strep tagged human …; assay: BLI (Octet K2), IgG on AHC tips, hTyro3 ECD analyte, 1:1 global fit; kdis(1/s); kdis Error 6,46E-05
# Protocol: (§1) Affinity determinations were performed using biolayer interferometry on an Octet K2 instrument (Pall/ForteBio) equipped with anti-Human Kinetics (AHC) disposable fiber-optic biosensor tips. All experiments were conducted at 30° C. in the recommended Fortebio running buffer (PBS with 0.1% (w/v) bovine serum albumin (BSA) and 0.02% (v/v) Tween_20). This buffer was also used for dilution of ligand (here the antibody) and of the analyte (here the extra cellular domain of human Tyro3 protein). Samples in a 96-well microplates (No. Black polypropylene low binding plates, Greiner Bio-One, Frickenhausen, Germany) were agitated at 1000 rpm. […] Between measurements, the anti-human Tyro3 biosensor surfaces were regenerated by exposing them to 3 cycles of 5 sec in 10 mM glycine, pH 1.5, followed by 5 sec in PBS. Association phase was measured for 300 seconds, dissociation phase depending on the interaction for 300 seconds depending on dissociation step. […] Affinity, association (kon) and dissociation rate constants (koff) for each antibody were calculated applying a 1:1 interaction model fitting global, Rmax linked by sensor) on the ForteBio data analysis software 9.0.
# [2] = target: T2, cynomolgus Tyro3 ECD, His-Strep tagged; assay: sandwich ELISA, Strep-tagged cynomolgus Tyro3 ECD captured on StrepMAB plate, IgG 3-fold from 3 µg/mL, anti-human IgG1-HRP
# Protocol: [The procedure below names another species; the source lists this species under the same test.] (§2) A double sandwich ELISA was developed. This assay consisted in measuring the binding of the anti-Tyro3 antibodies to be tested on immobilized strep-tagged entire human Tyro3 ECD captured directly on ELISA plate pre-coated with an anti-strep mAb (StrepMAB-Immo coated microplates from IBA biotech). Briefly, the 96 wells of StrepMAB-Immo coated microplate were washed three times with 300 μL of the PBS Tween 0.2% (referred as ELISA washing solution). The capture of an excess of purified strep tagged hTyro3 ECD protein was achieved by a one hour incubation at room temperature. In these experiments, 3 μg of purified protein diluted in PBS, BSA 1% (referred as ELISA diluent solution) were immobilized per well. The wells were washed three times with 300 μL of the washing solution. The non-specific binding sites on the well surface were blocked during 60 min at room temperature with 200 μL/well of blocking solution (PBS, BSA 3%). The wells were washed five times with 300 μL of the washing solution. Then, 100 μl (in duplicates) of the different concentrations of anti-Tyro3 antibodies to be tested diluted in ELISA diluent solution, were added per well and allowed to incubate during 1 hour at room temperature. An Irrelevant control IgG2656 was also added in this experiment. For anti-Tyro3 antibodies in the ScFv format, experiments were performed with 6 concentrations in duplicates (FIG. 3A). For anti-Tyro3 antibodies in the IgG format, experiments were performed with 9 concentrations in duplicates (FIG. 3B). […] For IgGs experiments, starting concentration for first dilution was 3 μg/ml and then dilutions of 3 fold in the ELISA diluent solution were performed. The wells were washed five times with 300 μL of the washing solution. […] The mix was allowed to incubated 60 min at room temperature.
# [3] = target: T1, recombinant His-Strep tagged human …; assay: BLI (Octet K2), IgG on AHC tips, hTyro3 ECD analyte, 1:1 global fit; KD Error 9,68E-10
# Protocol: as §1
# [4] = target: T1, recombinant His-Strep tagged human …; assay: BLI (Octet K2), IgG on AHC tips, hTyro3 ECD analyte, 1:1 global fit; kon Error 1,63E+03
# Protocol: as §1
# [5] = target: T1, recombinant His-Strep tagged human …; assay: BLI (Octet K2), 1:1 global fit; analyte concentration of this kobs not given
# Protocol: Affinity determinations were performed using biolayer interferometry on an Octet K2 instrument (Pall/ForteBio) equipped with anti-Human Kinetics (AHC) disposable fiber-optic biosensor tips. All experiments were conducted at 30° C. in the recommended Fortebio running buffer (PBS with 0.1% (w/v) bovine serum albumin (BSA) and 0.02% (v/v) Tween_20). This buffer was also used for dilution of ligand (here the antibody) and of the analyte (here the extra cellular domain of human Tyro3 protein). Samples in a 96-well microplates (No. Black polypropylene low binding plates, Greiner Bio-One, Frickenhausen, Germany) were agitated at 1000 rpm. […] Between measurements, the anti-human Tyro3 biosensor surfaces were regenerated by exposing them to 3 cycles of 5 sec in 10 mM glycine, pH 1.5, followed by 5 sec in PBS. Association phase was measured for 300 seconds, dissociation phase depending on the interaction for 300 seconds depending on dissociation step. All measurements were corrected for baseline drift using the double reference substraction, that is to say by subtracting a control sensor without ligand exposed to each concentration of the extra cellular domain of human Tyro3 protein and a reference well with ligand submitted to running buffer only. Affinity, association (kon) and dissociation rate constants (koff) for each antibody were calculated applying a 1:1 interaction model fitting global, Rmax linked by sensor) on the ForteBio data analysis software 9.0.
# [6] = target: T1, recombinant His-Strep tagged human …; assay: BLI (Octet K2), IgG on AHC tips, hTyro3 ECD analyte, 1:1 global fit; KD Error 2,48E-09
# Protocol: as §1
# [7] = target: T1, recombinant His-Strep tagged human …; assay: BLI (Octet K2), IgG on AHC tips, hTyro3 ECD analyte, 1:1 global fit; kon Error 9,23E+02
# Protocol: as §1
# [8] = target: T1, recombinant His-Strep tagged human …; assay: BLI (Octet K2), IgG on AHC tips, hTyro3 ECD analyte, 1:1 global fit; kdis(1/s); kdis Error 1,11E-04
# Protocol: as §1
# [9] = target: T1, recombinant His-Strep tagged human …; assay: sandwich ELISA, Strep-tagged hTyro3 ECD captured on StrepMAB plate, IgG 3-fold from 3 µg/mL, anti-human IgG1-HRP
# Protocol: as §2
# [10] = target: T3, recombinant human Tyro3 on transfected …; assay: flow cytometry, 1 µg IgG per 5E5 live HEK293 cells, PE anti-human lambda
# Protocol: FIG. 9: Binding of anti-Tyro3 IgGs in living cells. HEK293 cells transfected to express recombinant human Tyro3 and HEK293 untransfected cells were stained with the Live-Dead NIR dye and either incubated with the TYRO 3-specific MAB859 monoclonal antibody, its isotype control (upper panels) or to individual anti-Tyro3 IgG (middle and bottom panels). IgG isotype control is IGX2656. […] Data were acquired using an ARIA III flow cytometer (Becton Dickinson) and analyzed using the Kaluza software (Beckman Coulter). Histograms shown are restricted to live cells that show a characteristic size and granulometry of HEK293 cells. Anti-Tyro3 IgG Tyro3-specific binding is shown by fluorescence intensity increase of Tyro3-transfected cells (black line) compared to untransfected cells (grey line).
# To determine the individual IgG ability to further bind Tyro3-transfected cells than untransfected cells, 5^E5 untransfected and Tyro3-transfected cells were exposed to Live-Dead NIR dye (Life Technologies, #L10119) and 1 μg of each IgX in PBS for 30 minutes at 4° C. […] Cells were washed and PE fluorescence of at least 10,000 live cells was immediately recorded on an ARIA III flow cytometer (Beckton Dickinson) (middle and bottom panels of FIG. 9). IgG ability to bind overexpressed Tyro3 was determined with overlay histograms showing PE expression profile of untransfected and Tyro3-transfected cell. […]
binder,measurement,setting,value
"IgG2410 (antibody, V domains shown, also called IGX2410) VH: EVQLVQSGADVKKPGASLTISCQASGYTFTDYWISWVRQKPGKGLEWMGQIVPRASRTNYGPSFQGHVTISADRSTATAYLQWRSLEASDTAMYYCVRPYFQTSGGTIPEYYQHWGPGTLVTVSS VL: SYELTQPPSVSVSPGQTARITCSGDALPKKYAYWYQQKSGQAPVLVIYEDEKRASGIPERFSGSSSGTMATLTISGAQVEDEADYYCYSQERNGNYAVFGGGTKLTVL",koff,[1],0.00704 s⁻¹
same,binding result,[2],binds
same,Kd,[3],58.9 nM
same,kon,[4],120000 M⁻¹ s⁻¹
same,kobs,[5],0.0145 s⁻¹
"IgG2412 (antibody, V domains shown, also called IGX2412) VH: EVQLVQSGADVKKPGASLTISCQASGYTFTDYWISWVRQKPGKGLEWMGRIRPLLSHTMYGPSFQGHVTISADRSTATAYLQWRSLEASDTAMYYCVRSWLATSGGTIPEYYQHWGPGTLVTVSS VL: SYELTQPPSVSVSPGQTARITCSGDALPKKYAYWYQQKSGQAPVLVIYEDAKRVSGIPERFSGSSSGTMATLTISGAQVEDEADYYCYSASANGNYRVFGGGTKLTVL",Kd,[6],135 nM
same,binding result,[2],binds
same,kon,[7],67400 M⁻¹ s⁻¹
same,kobs,[5],0.0175 s⁻¹
same,koff,[8],0.0091 s⁻¹
"IgG2717 (antibody, V domains shown, also called IGX2717) VH: EVQLVQSGADVKKPGASLTISCQASGYTFTDYWISWVRQKPGKGLEWMGEIFLPPSTTVYGPSFQGHVTISADRSTATAYLQWRSLEASDTAMYYCVRQTRLTSGGTIPEYYQHWGPGTLVTVSS VL: SYELTQPPSVSVSPGQTARITCSGDALPKKYAYWYQQKSGQAPVLVIYEDNKRGSGIPERFSGSSSGTMATLTISGAQVEDEADYYCYSKSPEGNYMVFGGGTKLTVL",binding result,[9],binds
same,binding result,[2],binds
same,binding result,[10],binds
"IgG2411 (antibody, V domains shown, also called IGX2411) VH: EVQLVQSGADVKKPGASLTISCQASGYTFTDYWISWVRQKPGKGLEWMGSITRSSSRTHYGPSFQGHVTISADRSTATAYLQWRSLEASDTAMYYCVRGYTHLRTWGPGTLVTVSS VL: SYELTQPPSVSVSPGQTARITCSGDALPKKYAYWYQQKSGQAPVLVIYEDSKRSSGIPERFSGSSSGTMATLTISGAQVEDEADYYCYSANQRGNYMVFGGGTKLTVL",EC50 (read off the curve),[9],~0.02 µg/mL
same,EC50 (read off the curve),[2],~0.02 µg/mL
